# Positions count from the first letter of the chain named.
# B1: ADI-14505 (antibody, V domains shown)
# VH: QVQLVQSGAEVKKPGASVKVSCKASGNSFNDFYMHWVRQAPGQGLEWMGWIDPNNGGANYAQKFHGRVTMTRDSSINTAYMELSRLRSDDTAVYYCASEPPGVGFGLIPHYYFDNWGQGTLVTVSS
# VL: EIVMTQSPDSLAVSLGERATINCKSSQNVLDTSNNKNYLAWYQQKPGQPPRLLIYWASARGSGVPDRFSGSGSGTHFTLTISSLQAEDVAVYYCQQYFSIPPTFGQGTKVEIK
# B2: ADI-14519 (antibody, V domains shown)
# VH: EVQLVESGAEMKQPGASVKVSCEGFGNTLSERSIHWVRQAPGKGPEWMGDYDHEDKEAIYAPKFQGRLTISADMSTDIASLELNSLTSEDTAVYYCATVIAVGAYDIWGQGTLVTVSS
# VL: EIVLTQSPSSLYASIGDRVTITCRTGQSISRYLNWYQQKPGKAPKLLIYAASTLQSGVPSRFSGSGAGTDFTLTIRGLLPEDFATYFCQQSYIIPYTFGQGTKVEIK
# B3: ADI-14518 (antibody, V domains shown)
# VH: QVQLVQSGPEVKKPGASVRVSCKTSGFTLSHYGVSWLRQAPGHGLEWLGWISAYNYNTQFGHRMEGRLTMTTDTSTAYMDLTSLTSDDTAIYYCARDSPSDTAAALLDFWGQGTLVTVSS
# VL: DIVLTQSPLSLPVTLGQPASISCRSSQSLVYSDGNTYLSWFQQRPGQAPRRLIYKISNRDSGVPDRFSGSGSGTDFTLKISRVEAEDVGIYYCMQATHWPRLSFGGGTKVEIK
# B4: ADI-14442 (antibody, V domains shown)
# VH: QVQLVQSGSEVKKPGASVKVSCKASGYRFSNYGISWVRQAPGQGLEWMGWISAYNGNIKYGNNLQGRVTVTTDTSTATAYMEVRSLTSDDTAVYYCARDVPADGVHFMDVWGQGTLVTVSS
# VL: EIVMTQSPLSLPVTLGQPASISCRSSQSLVHSDTNTYLNWFQQRPGQSPRRLIYKVSNRDSGVPDRFSGSGSGTTFTLKISRVEAEDVGIYYCMQGSHWAPTFGQGTKVEIK
# B5: ADI-14509 (antibody, V domains shown)
# VH: QVQLVQSGSEVKKPGASVTLSCKASGYRFSNYGVSWVRQAPGQGLEWMGWISGYNGNIKYGNSLQGRVTLTTDTTTAYMEVTSLTSDDTAVYYCARDVPADGVHFMDVWGKGTTVTVSS
# VL: B4 VL with M4L, N39T, N58H, S81A, Q95E, E110D
# B6: ADI-14514 (antibody, V domains shown)
# VH: B5 VH with L20V, G53A, I58T, T82R, A100G
# VL: B4 VL with P18S, N39T, N58H, Q95E
# B7: ADI-14489 (antibody, V domains shown)
# VH: B4 VH with A77T, Q113K, L116T
# VL: B4 VL with E1D, S7T
# B8: ADI-14496 (antibody, V domains shown)
# VH: QVQLVQSGAEVKKPGESLKISCQGSGYSFRSYWIGWVRQKPGKGLEYMGIIFPNDFDTRYSPSFQGQVTISVDKSTSTAFLQWTSLQASDTAIYYCGRQELQGSFTIWGQGTMVTVTS
# VL: DIVMTQSPSSLSASVGDRVTITCQASQDMGNSLNWYQQKSGKAPKLLIYDASYLDSGVPSRFSGSGSGTHFTFTISTLQPEDIATYYCQHYDNLLLFTFGPGTKLEIK
# B9: ADI-14502 (antibody, V domains shown)
# VH: QVQLVQSGAEVKKPGSSVKVSCKASGDTFSMYAISWVRQAPGQGLEWMGGVLPMLGTSNYAQQFRGRVTITADGSTSTAYMEMSNLRFEDTAVYYCARVAGLGNSYGRYFDVWGQGTLVTVSS
# VL: DIRMTQSPSSVSASIGDRVTITCRASQDISTSLAWYQQRPGKAPNLLIYAASTLHSGVPSRFRGSESGPDFTLTISSLQPEDVGTYYCQQAKSFPYTFGQGTKLEIK
# B10: ADI-14515 (antibody, V domains shown)
# VH: QVQLVQSGGGVVQPGSSLRLSCSASGFTFMTYGMHWARQAPGKGLEWVADISFDANKKYYRDSVKGRFTISRDNSKNTVYLQMNSLRPEDTAVYFCARNTIFGVVDYWGQGTLVTVSS
# VL: EIVLTQSPATLSVSPGERATLSCRASQSVSANLAWYQHKPGQAPRLLIYGASTRASDIPARFSGSGSGTEFTLTISSLQSEDSAVYYCQQYNNWPPWTFGQGTKVEIK
# B11: ADI-14444 (antibody, V domains shown)
# VH: QVQLVQSGPDVKRPGASVRVSCKASGYTFSDYYMHWVRQAPGQGLEWLAWVNPSTGATHYSESFRGSMVVQRDTSTDTAYLELSSLKSDDTAVYYCARIGSNEIWGQGTMVTVSS
# VL: QSALTQPASVSGSPGQSITISCAGTSSDIGGWNYVSWYQQYPGQVPKLILYEVTDRPSGVSHRFSGSKSGNRAFLTITGLRAEDEADYYCCSFTSSGSRVFGGGTKVTVL
# B12: ADI-14493 (antibody, V domains shown)
# VH: QVQLQQWGTGLVKPSETLSLTCAVSGGAFSGHQWNWFRQPPGKGLEWIGEINVSGNTHYNVSLRSRVTISLDESKKQFSLKMTSVTAADTAIYYCAKASSGSYHFEYWFDPWSQGTMVTVSS
# VL: SYELTQPPSVSVAPGKMAWFTCGGSDIGSKRVHWYQQKPGQAPVLLVYDDSLRPSGTSARVSGSTSGNTATLSIISVEAGDEADYFCQVWDDADDHAVFGGGTKLTVL
# B13: ADI-14501 (antibody, V domains shown)
# VH: QVQLVQSGAEVKKPGSSVKISCKASGGTFKSQAIHWVRQAPGQGLEWMGNIIPTYGSPNFAQRFLGRVTFIADDSTGAASMDLYRLTSEDTAVYYCATAGWFGELVRFDSWGQGTLVTVSS
# VL: DIVMTQSPATLSVSPGERATLSCRATESISSNLAWYQQKPGQAPRLLIYGASTRATGIPARFSGSGSGTEFTLTINSLQSEDFAVYYCQQYNNWPPLTFGGGTKVDIK
# B14: ADI-14508 (antibody, V domains shown)
# VH: QVQLVQSGTEVKKPGASVKVSCKGSGYMFANFGVSWVRQAPGRGLEWIGWISAYNGNTYYGREQGRFTMTTDTNTAYLELTSLRYDDTALYFCARDSGATAAGILWDYWGQGTLVTVSS
# VL: EIVMTQSPLSLPVTLGQPASISCRSSQSLAYTDGSTYLNWFHQRPGQSPRRLIYKVFNRDSGVPDRFSGSGAGTDFTLTISRVEAEDVGVYYCMQATHWPRTFGQGTKVDIK
# B15: ADI-14516 (antibody, V domains shown)
# VH: QVQLVQSGVEVKKPGASVKVSCKTSGYTFSNYGVTWVRQAPGQGLEYMGWISAYNGNTNYAQNVQGRLTMTTDTSTSTGYMELRRLTSDDTAVYFCARDKGVTVAGSLLDYWGQGTLVTVSS
# VL: EIVMTQSPLSLPVTLGQPASISCRSSQSLEHSDGNTYLNWFQQRPGQSPRRLIYKVSNRDSGVPDRFSGSGSGTDFTLKINRVEAEDVGVYYCMESTHWPPYTFGQGTKVEIK
# Target: RSV F protein of recombinant mKate-RSV, subtype B (18537) (Respiratory syncytial virus subtype B …, UniProt P13843 26-574)
# Assay: cell-based or functional assay
row,Binder,Neut IC50 subtype B [µg/mL]
1,B1,0.018
2,B2,3.43
3,B3,0.032
4,B4,0.015
5,B5,0.016
6,B6,0.074
7,B7,0.021
8,B8,> 10
9,B9,2.72
10,B10,0.049
11,B11,> 10
12,B12,1.27
13,B13,2.29
14,B14,0.057
15,B15,0.047

# Target: RSV F protein of recombinant mKate-RSV, subtype A (strain A2) (Respiratory syncytial virus subtype A …, UniProt P03420 26-574)
# Assay: cell-based or functional assay
row,Binder,Neut IC50 subtype A [µg/mL]
1,B1,0.065
2,B2,12.2
3,B3,0.019
4,B4,0.002
5,B5,0.011
6,B6,0.046
7,B7,0.023
8,B8,0.006
9,B9,> 10
10,B10,0.051
11,B11,> 10
12,B12,0.009
13,B13,12.3
14,B14,0.029
15,B15,0.018

# Reference: patent US20250313612A1 (Adimab, published 2025)
